According to publication PMC9035704:
Where “and” joins values, the source holds several entries; their conditions need not be identical. Equal values may be shown once. Read-outs that look alike come from different tables or passages of the source.

Experiments:
Experiment in all cases: cryo-EM structure
[1] = molecular target: Danio rerio calcium homeostasis modulator 1 (drCALHM1) (Danio rerio) (UniProt E7F2J4)
[2] = molecular target: Danio rerio calcium homeostasis modulator 1 (drCALHM1) (Danio rerio) (UniProt E7F2J4); remark: listed apart in the source
[3] = molecular target: Danio rerio calcium homeostasis modulator 1 (drCALHM1) (Danio rerio) (UniProt E7F2J4); remark: listed apart in the source

stoichiometry N [1]: 7 and 8 | stoichiometry N [2]: 7 | stoichiometry N [3]: 8
Substance: Danio rerio calcium homeostasis modulator 1 (drCALHM1) (from UniProt E7F2J4 1-346) (natural protein)
